The nature of the data set: protease stability score; higher = more stable; yeast display proteolysis, trypsin and chymotrypsin.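 Further: log10 excess protease needed over predicted unfolded state with 0 meaning unfolded.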
“DEHAARVFLELLKAAETGDEKRLKRLADPNARIQVGDKHVDGMDEATKKIVKTWEKSRIRFEIKSYDVDGEKVRVNMQMTNRDNGEPDSKNAHFTVEVRNGHIKHADLQHHG”: the protease stability score is -0.223.
In turn, “DEHAARVQHEIQKVQETGDEERVRELVDPNVKIQVGDKTIHGMDEYLTRVKKRMDELRFSVTWRHYDVHNGQVNVKVEFTKDHNGKPQRDVMVMKFHIHNGRVQFLSMEKDQ” showed a protease stability score of 0.843.
Regarding “DEHADTIVKKYLDAIKSNNPEDVKENVDKDVDVEVGDTSWHGRDEVVTRVQNELDEIRIDMKVDEVNNQGNHVEVKMHMTLDINGKPATVDWDVKFDIQNGRIQSIRLRPDEENRKQKEK”, the protease stability score was 0.057.
In the case of “DEHAEDLFRQLKEAEDTGDEDHFRRLVDPNAHFEIGNKHVHGREERATQMKQQKKQIRVEIKSMDYRVDGEKVEARVDATYNFNGRPDRMHIVIDIEFHNGRVTNARYRLDEEDLKRVEK”, the protease stability score is 0.308.
The same measure for “DEHAEHIATEWWKAIRTNNPERARELVDKDVKINVGDKRIHGREQVDREIKRLNNTSRQDYKSMHMTVKGDKVRVEMNKRQEDNGNPRSKNFEVVFDFHNGRIRHISVHETK”: -0.381; for “DEHAERIFRKWMTIYKKGDPKKVKELLDPNARVRIGDKRIRGRETAAEQQSTRADEMRNDVKVKHLEVNGDDLVVRIKFTSEENGNPKDQEAKFDWNIHNGKIRSQTQDIKG”: -0.017.
For “DEHAFKRIDEMLTAFQKNDPNKIQEYMDENVKVQYGDKSVHGRDEIAKSKQETREHLRLEIRIENYDVNGDTIHVHAKVIFNVNGDPLKFEVDIVARLHNGKIKSMQLQFSHEQQKKVES”, the protease stability score was determined as 0.682.
Then “DEHAHRQFKHYLDALKENNEEDLKKQMDKDAEAKYGNQELHGRDDAARHLKRELEEIRVDITEYRIRNQGNNIEAHVRFVVKHNGQPSKMTVLITASADENHMRTIEFDEKK”, with 0.248.
In turn, “DEHAIKLLKKIYEAWEEGDPDEARENADPNARYIIGDKTLHGMENIVKEWQRRYDESRIDYKHIDVQDDNGRANADVRYVVQHNGRPERKTMTVIVEVHNGRVTQIHFQDTQ” registered a protease stability score of -0.01.
For “DEHAKDVFDTLREARKRGDEDTMKRQVDPNAKAQVGDKTYHGSDEIARRLTEENRESRVEYHTMSVEIQGDHVVVRFRARYEHNGQPSHFHAVEVVKADNGQIVFLVLQETK”, the protease stability score worked out at 0.06.
With “DEHAKELAKEFMEAWTKGDPDKAATLADPNVRANVGEFNVHGREDAHRAVDRFRRQMHVELDIRSMRVQGNKVQVDVSVTVTHNGRPHSNRYVVLIIFHNGRIRSVHRRREG”, the protease stability score stood at 0.176.
The same measure for “DEHAKHVVETYMTAQKHNNPKDAQKMVDPNARFSVGDKEVQGSEQLDKEIQRDNKEIREHVESMSVDVDGDKAHVDRTVKFQRNGKPHKLKVHLNFRLTNGRIKTVQVDEDG”: -0.308.
Then “DEHAKKLAERILEAISNNNEEDIQKNIDPNAKIQVGDRQVHGREDLQKQYQDFRHHARIQNRLRSVRADGDHVTLEIEVVFKVNGNPVNNTVNMSMVIENGRVKMREVQVPEEVQDTIDQ”, with 0.075.
The same measure for “DEHAKKRLEEWLRNRQQGDDERLVQMADPNVRIEYGDKSFKGRDDVREWAQKESKSMDLQLKSVDLKVSGDKVDAKITFTQDENGKPDHATMNLVMKQDNGHIKVLRYEVTK”: 0.084; for “DEHAKRVLHEWLRAIQTGDPDKAMRLADKDARIRVGDKVISGREQLHKWVETLKKHIKVQIEDFNIEVHGEELELNIVATLNDNGEPQRSRWVVTVIIRNGEMKSLTQRDDS”: 0.009; for “DEHAKRVVEKAWKALDTGDPKTMEDMLDPNARQRYGDTSVHGRENIIHKLEKDSKEIRFKIKIDNITVHGDKIDVRMLVTERRDGQPRQTHRVATFRIHNGRLEEADFQKDG”: -0.073.
Regarding “DEHAMERIDDFFQALRNGDPKNLKEQIDPNVSLHYGDKEVTGKDRAAKEMAQIFRHIRLEFDIKSVSAHNGRVTVNAEVVDEENGRPHSRRVQNNAVWHNGVIQSFHVKETK”, the protease stability score was -0.402.
The same measure for “DEHANETVKRILRDIRHNNPHEIRKNMDPNAKVVIGDKTIHGREEAARQLKREMHEIRVEVKHIDMKVHDGRVNVNFDVVLDSNGNPQRQSYRMVVRVHNGTVHYLSKSDTR”: -0.041.

(Values after the NTF2 design screens of Basanta et al. (2020).)
